From the Immune Epitope Database (IEDB)

How the values were obtained:
HLA-A*31:01 = assay: IEDB peptide-MHC binding, purified MHC/competitive/fluorescence; filed as Kd, often an IC50 or EC50 that approximates it; ≥ and ≤ were set here for values at or beyond the usual limits of such assays
HLA-A*03:01 [1] = assay: as above
HLA-A*02:03 = assay: IEDB peptide-MHC binding, purified MHC/direct/fluorescence; filed as Kd, often an IC50 or EC50 that approximates it; ≥ and ≤ were set here for values at or beyond the usual limits of such assays; settings: source organism: Mycobacterium tuberculosis F11
HLA-A*02:11 = assay: as above
HLA-A*69:01 [2] = assay: as above
HLA-A*68:02 = assay: as above; settings: source organism: Orthohantavirus tulaense
HLA-A*02:01 = assay: as above
HLA-A*03:01 [3] = assay: as above
HLA-B*18:01 [4] = assay: IEDB peptide-MHC binding, purified MHC/competitive/fluorescence; filed as Kd, often an IC50 or EC50 that approximates it; ≥ and ≤ were set here for values at or beyond the usual limits of such assays; settings: source organism: Orthohantavirus tulaense
HLA-B*57:01 [5] = assay: as above; settings: source organism: Orthohantavirus tulaense
HLA-A*69:01 [6] = assay: as above; settings: source organism: Orthohantavirus tulaense
HLA-A*26:01 = assay: as above; settings: source organism: Orthohantavirus tulaense
HLA-B*27:03 = assay: as above; settings: source organism: Orthohantavirus tulaense
HLA-B*51:01 = assay: as above; settings: source organism: Orthohantavirus tulaense
HLA-B*18:01 [7] = assay: IEDB peptide-MHC binding, purified MHC/direct/fluorescence; filed as Kd, often an IC50 or EC50 that approximates it; ≥ and ≤ were set here for values at or beyond the usual limits of such assays; settings: source organism: West Nile virus
HLA-A*01:01 [8] = assay: as above; settings: source organism: West Nile virus
HLA-B*07:02 = assay: as above; settings: source organism: West Nile virus
HLA-B*57:01 [9] = assay: as above; settings: source organism: West Nile virus
HLA-B*46:01 = assay: as above; settings: source organism: West Nile virus
HLA-B*44:02 = assay: as above; settings: source organism: West Nile virus
HLA-A*11:01 = assay: as above
HLA-B*48:01 = assay: as above; settings: source organism: West Nile virus
HLA-B*58:01 = assay: as above; settings: source organism: West Nile virus
HLA-B*15:01 = assay: as above; settings: source organism: West Nile virus
HLA-B*27:05 = assay: as above; settings: source organism: West Nile virus
HLA-A*29:02 = assay: IEDB peptide-MHC binding, purified MHC/competitive/fluorescence; filed as Kd, often an IC50 or EC50 that approximates it; ≥ and ≤ were set here for values at or beyond the usual limits of such assays
HLA-A*01:01 [10] = assay: as above; settings: source organism: Xenopus laevis
HLA-A*02:12 = assay: IEDB peptide-MHC binding, purified MHC/direct/fluorescence; filed as Kd, often an IC50 or EC50 that approximates it; ≥ and ≤ were set here for values at or beyond the usual limits of such assays
HLA-A*02:19 = assay: as above
HLA-A*02:17 = assay: IEDB peptide-MHC binding, purified MHC/competitive/radioactivity; filed as Kd, often an IC50 or EC50 that approximates it; ≥ and ≤ were set here for values at or beyond the usual limits of such assays; settings: source organism: Dengue virus 1 Singapore/S275/1990
HLA-B*57:01 [11] = assay: as above
HLA-B*83:01 = assay: IEDB peptide-MHC binding, purified MHC/competitive/fluorescence; filed as Kd, often an IC50 or EC50 that approximates it; ≥ and ≤ were set here for values at or beyond the usual limits of such assays; settings: source organism: human gammaherpesvirus 4
HLA-B*45:06 = assay: as above; settings: source organism: human gammaherpesvirus 4
HLA-B*15:42 = assay: as above; settings: source organism: human gammaherpesvirus 4
HLA-B*53:01 = assay: IEDB peptide-MHC binding, purified MHC/competitive/radioactivity; filed as Kd, often an IC50 or EC50 that approximates it; ≥ and ≤ were set here for values at or beyond the usual limits of such assays; settings: source organism: Dengue virus 3 Martinique/1243/1999
[12] = source organism: Escherichia coli
[13] = source organism: West Nile virus
[14] = source organism: Influenza A virus (A/swine/Bakum/5/95(H1N1))
[15] = source organism: Bacillus anthracis str. A0488
[16] = source organism: Dengue virus 2 Thailand/16681/84
[17] = source organism: Influenza A virus
[18] = source organism: Escherichia coli O157:H7
[19] = source organism: Influenza A virus (A/quail/Hong Kong/FY298/00(H9N2))
[20] = source organism: Hantaanvirus CGRn93P8
[21] = source organism: Orthohantavirus hantanense
[22] = source organism: Dengue virus 3 Martinique/1243/1999

Q: ALRGVAVGR was tested. Which Kd (HLA-A*31:01; [12]) did it give?
A: 0.0038 µM

Q: What about the Kd (HLA-A*03:01 [1]; [12]) of the same sequence?
A: 0.0097 µM

Q: How did the Kd (HLA-A*02:03) turn out when FLFGDDDAL was run?
A: 0.002 µM

Q: And the Kd (HLA-A*02:11; source organism: Mycobacterium tuberculosis F11)?
A: 0.003 µM

Q: And the Kd (HLA-A*69:01 [2]; source organism: Mycobacterium tuberculosis)?
A: 2.11 µM

Q: Which results are given for FMFNELLAL?
A: Kd (HLA-A*68:02): ≥ 20 µM; Kd (HLA-A*02:01; source organism: Orthohantavirus puumalaense): 0.0002 µM; Kd (HLA-A*03:01 [3]; source organism: Orthohantavirus tulaense): ≥ 20 µM; Kd (HLA-B*18:01 [4]): ≥ 20 µM; Kd (HLA-B*57:01 [5]): ≥ 20 µM; Kd (HLA-A*69:01 [6]): ≥ 20 µM; Kd (HLA-A*26:01): ≥ 20 µM; Kd (HLA-B*27:03): ≥ 20 µM; Kd (HLA-B*51:01): ≥ 20 µM

Q: How did the Kd (HLA-B*18:01 [7]) turn out when FTRYRKEAI was run?
A: ≥ 20 µM

Q: And the Kd (HLA-A*01:01 [8])?
A: ≥ 20 µM

Q: And the Kd (HLA-B*07:02)?
A: ≥ 20 µM

Q: What about the Kd (HLA-B*57:01 [9]) of the same sequence?
A: ≥ 20 µM

Q: What about the Kd (HLA-B*46:01) of the same sequence?
A: ≥ 20 µM

Q: And the Kd (HLA-B*44:02)?
A: ≥ 20 µM

Q: And the Kd (HLA-A*11:01; [13])?
A: ≥ 20 µM

Q: And the Kd (HLA-B*48:01)?
A: ≥ 20 µM

Q: What about the Kd (HLA-B*58:01) of the same sequence?
A: ≥ 20 µM

Q: What about the Kd (HLA-A*02:01; [13]) of the same sequence?
A: ≥ 20 µM

Q: And the Kd (HLA-B*15:01)?
A: ≥ 20 µM

Q: What about the Kd (HLA-A*03:01 [3]; [13]) of the same sequence?
A: ≥ 20 µM

Q: What about the Kd (HLA-B*27:05) of the same sequence?
A: ≥ 20 µM

Q: What does the source list for GINDRNFWR?
A: Kd (HLA-A*11:01; [14]): 0.147 µM; Kd (HLA-A*03:01 [3]; [14]): 4.14 µM; Kd (HLA-A*31:01; source organism: Influenza A virus (A/swine/Italy/1509-6/97(H1N1))): 0.00317 µM

Q: How did the Kd (HLA-A*29:02; source organism: Clostridium botulinum E3 str. Alaska E43) turn out when GIWHGPYWH was run?
A: 0.231 µM

Q: Which results are given for GSASPTPPY?
A: Kd (HLA-A*01:01 [10]): 0.0427 µM; Kd (HLA-A*29:02; source organism: Xenopus laevis): 0.0037 µM

Q: For IVNMGNPDY, which Kd (HLA-A*29:02; source organism: Encephalitozoon cuniculi GB-M1) is on record?
A: 0.0544 µM

Q: KLSSMAAER was tested. Which Kd (HLA-A*31:01; [15]) did it give?
A: 0.016 µM

Q: What about the Kd (HLA-A*03:01 [1]; [15]) of the same sequence?
A: 0.088 µM

Q: How did the Kd (HLA-A*02:12; [16]) turn out when KMDIGVPLL was run?
A: 0.004 µM

Q: And the Kd (HLA-A*02:11; [16])?
A: ≤ 0.001 µM

Q: And the Kd (HLA-A*69:01 [2]; source organism: Dengue virus 1 Singapore/S275/1990)?
A: ≥ 20 µM

Q: What about the Kd (HLA-A*02:19; [16]) of the same sequence?
A: 0.016 µM

Q: And the Kd (HLA-A*02:17)?
A: 1.25 µM

Q: How did the Kd (HLA-B*48:01) turn out when KRVQEVKGY was run?
A: ≥ 20 µM

Q: What about the Kd (HLA-B*27:05) of the same sequence?
A: 0.782 µM

Q: Which Kd (HLA-B*57:01 [11]; source organism: Dengue virus 1 Brazil/97-11/1997) does the source give for KTTLSLDYAW here?
A: 0.000847 µM

Q: Which Kd (HLA-A*31:01; [17]) does the source give for LIAPRGYFK here?
A: 0.0339 µM

Q: And the Kd (HLA-A*03:01 [1]; [17])?
A: 0.0107 µM

Q: With MLRLWWIPY as the sequence, how does the Kd (HLA-A*11:01; [18]) read?
A: ≥ 20 µM

Q: And the Kd (HLA-A*03:01 [3]; [18])?
A: 10.1 µM

Q: And the Kd (HLA-A*31:01; source organism: Escherichia coli HS)?
A: ≥ 20 µM

Q: What does the source list for NTMTKDAER?
A: Kd (HLA-A*11:01; [19]): ≥ 20 µM; Kd (HLA-A*03:01 [3]; [19]): ≥ 20 µM; Kd (HLA-A*31:01; source organism: Influenza A virus (A/Fort Monmouth/1/1947-mouse adapted(H1N1))): 0.108 µM

Q: For QMISPVMSV, which Kd (HLA-A*02:12; [20]) is on record?
A: 0.003 µM

Q: And the Kd (HLA-A*02:11; [20])?
A: ≤ 0.001 µM

Q: And the Kd (HLA-A*69:01 [2]; [21])?
A: 0.0012 µM

Q: What about the Kd (HLA-A*02:19; [20]) of the same sequence?
A: 0.007 µM

Q: What about the Kd (HLA-A*02:01; [21]) of the same sequence?
A: ≤ 0.001 µM

Q: How did the Kd (HLA-B*83:01) turn out when RPRPRTPEW was run?
A: 0.426 µM

Q: What about the Kd (HLA-B*45:06) of the same sequence?
A: ≥ 5 µM

Q: What about the Kd (HLA-B*15:42) of the same sequence?
A: ≥ 5 µM

Q: For RVDGLELKK, which Kd (HLA-A*11:01; source organism: Yellow fever virus 17D) is on record?
A: 0.0188 µM

Q: What about the Kd (HLA-A*31:01; source organism: Yellow fever virus) of the same sequence?
A: ≥ 20 µM

Q: Which Kd (HLA-B*57:01 [11]; [22]) does the source give for SSSMRKTDW here?
A: 0.416 µM

Q: STSLLFLNDM was tested. Which Kd (HLA-B*57:01 [11]; source organism: Dengue virus 4 Philippines/H241/1956) did it give?
A: 0.0864 µM

Q: For TALFSGVSW, which Kd (HLA-B*53:01) is on record?
A: 0.0498 µM

Q: What about the Kd (HLA-B*57:01 [11]; [22]) of the same sequence?
A: 0.000589 µM

Q: With VGGDIRTLY as the sequence, how does the Kd (HLA-A*29:02; source organism: Coxiella burnetii RSA 331) read?
A: 0.0686 µM
